# Laboratory results as given in US20240294644A1 (BLUEFIN BIOMEDICINE, published 2024).
# Residue numbers refer to the chain shown, from its start.
# T1: recombinant human VTCN1-his protein (human, UniProt Q7Z7D3 25-259, limits assumed)
# T1 construct: also called human VTCN1 protein; recombinant VTCN1
# T1 sequence: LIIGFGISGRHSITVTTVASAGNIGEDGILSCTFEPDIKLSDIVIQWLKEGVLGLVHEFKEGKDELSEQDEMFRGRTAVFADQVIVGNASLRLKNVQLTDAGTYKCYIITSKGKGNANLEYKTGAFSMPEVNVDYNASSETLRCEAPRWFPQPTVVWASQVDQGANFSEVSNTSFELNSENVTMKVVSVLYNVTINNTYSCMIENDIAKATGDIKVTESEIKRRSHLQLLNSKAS
# T2: human VTCN1 expressed on cells (293-VTCN1 cells; SKBR3, MX-1 and ZR-75-1 cells that express it naturally) (human, UniProt Q7Z7D3 25-282)
# T2 construct: The cDNA was bought from Origene
# T2 sequence: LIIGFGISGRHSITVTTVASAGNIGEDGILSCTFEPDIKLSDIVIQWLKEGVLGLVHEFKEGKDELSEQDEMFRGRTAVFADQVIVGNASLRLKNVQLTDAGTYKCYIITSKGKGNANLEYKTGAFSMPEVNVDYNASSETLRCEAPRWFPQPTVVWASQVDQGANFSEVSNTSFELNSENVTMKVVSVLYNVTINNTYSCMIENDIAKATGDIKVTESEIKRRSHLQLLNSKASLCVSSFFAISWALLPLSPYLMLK
# T3: mouse VTCN1 expressed on 293 cells (mouse, UniProt Q7TSP5 25-257)
# T3 construct: whole, on cells
# T3 sequence (looked up): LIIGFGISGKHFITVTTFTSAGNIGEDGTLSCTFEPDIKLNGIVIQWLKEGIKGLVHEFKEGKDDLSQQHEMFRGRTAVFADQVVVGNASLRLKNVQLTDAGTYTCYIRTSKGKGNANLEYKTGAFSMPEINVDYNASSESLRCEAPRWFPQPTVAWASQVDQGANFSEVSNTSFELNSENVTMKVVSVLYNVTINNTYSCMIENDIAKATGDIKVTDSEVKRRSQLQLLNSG
# T4: cynomolgus monkey VTCN1 protein (cynomolgus monkey, UniProt A0A2K5U6P5 25-259)
# T4 construct: The construct and its tag are not described; also called cyno VTCN1
# T4 sequence: T1 sequence with L53I
# B1: 7G7_44C6 (antibody, V domains shown)
# VH: QVQLQESGPGLVKPSETLSLTCTVSGGSISHYYWSWIRQPPGKGLEWIGYIYYSGPTNYNPSLKSRVTISVDTSKNQFSLKLSSVTAADTAVYYCARTYYYGSGSFPDAFDIWGQGTMVTVSS
# VL: KIVLTQSPATLSLSPGERATLSCRASQSVSSYLAWYQQTPGQAPRLLIYDASNRATGIPARFSVSGSGTDFTLTISSLEPEDFAVYYCQQRSSWPLTFGGGTKLEIK
# notes: Fully human antibody
# B2: 7C9 (antibody, V domains shown)
# VH: QIQLQESGPGLVQPSQSLSITCTVSGFSLTSYGVQWVRQSPGKGLEWLGVIWSSGSTDYNAAFISRLSISKDNSKSQVFFKMNSLQADDTAIYYCARDITTIVEGFAYWGQGTLVTVSA
# VL: NIVMTQSPKSMSMSVGERVTLRCKASENVNTYVSWYQQKPEQSPKLLIYGASNRYTGVPDRFTGSGSATDFTLTISSVQAEDLADYHCGQSYSYPFTFGSGTKLEIK
# notes: Recombinant mouse antibody made in CHO cells
# B3: 1F8 (antibody, V domains shown)
# VH: B2 VH with I2M, Q5K, S40F, P41S, A87P, I92M
# VL: IIVMTQSPKSMSMSVGERVTLSCKASENVGTYVSWYQQKPEQSPKLLIYGASNRYTGVPDRFTGSGSATDFTLTISSVQAEDLADYHCGQSYSYPFTFGSGTKLEIKR
# notes: Recombinant mouse antibody made in CHO cells; also called 1F8C6
# B4: 7D9 (antibody, V domains shown)
# VH: B2 VH with Q5K, S54G, G110A
# VL: B2 VL with R22S, N30G, S91T
# notes: as for B2
# B5: 9H12 (antibody, V domains shown)
# VH: B2 VH with S54G, Y108H
# VL: B2 VL with R22S, N28K, N30G
# notes: as for B2
# B6: 4B9 (antibody, V domains shown)
# VH: B2 VH with Q1E, I2V, Q35H, M82I, N83H, G110A
# VL: B2 VL with R22I, N30G, S91T
# notes: as for B2
# B7: 1C3 (antibody, V domains shown)
# VH: B2 VH with E6Q, S56N, S68T, S70T, V78I
# VL: B2 VL with R22S, N30G, S91T
# notes: as for B2
# B8: 1A2 (antibody, V domains shown)
# VH: B2 VH with I2V, E6Q, Q35H, S54G
# VL: B2 VL with R22S, N30G, L83V, A84T, S91T
# notes: as for B2
# B9: 7G9 (antibody, V domains shown)
# VH: B2 VH with I2V, L4M, E46Q, F63V, N73T, A87P, A119S
# VL: B2 VL with N1I, R22S, N30G
# notes: as for B2
# B10: 8G3 (antibody, V domains shown)
# VH: B2 VH with Q35H, K75R, A87P, G110A
# VL: B2 VL with I2V, R22I, N30G, S91T, T97A
# notes: as for B2
# B11: 9H7 (antibody, V domains shown)
# VH: QVQLQESGPELVKPGASVKLSCKASGYSFTDYTMHWVKQSPGQGLEWIGWIYPGSGNTMYNDKFKGEATMTADKSSSTTYMQLSSLTSEDSAVYFCARGGDSIITVFPFTYWGQGTLVTVSA
# VL: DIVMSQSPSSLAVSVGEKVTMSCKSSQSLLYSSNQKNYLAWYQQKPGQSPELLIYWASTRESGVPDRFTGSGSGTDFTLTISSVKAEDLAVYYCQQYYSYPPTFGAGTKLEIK
# notes: as for B2
# B12: 3C6 (antibody, V domains shown)
# VH: QIQLQESGPELKKPGETVKISCKASGYTFTTTGMQWVQKMPGKGFKWIGWINTHSGEPKYADDFKGRFAFSLETSASTAHLQISNLKNEDTATYFCARTSYWYLDVWGAGTTVTVSS
# VL: DIVMTQSQKFMSTSVGDRVSVTCKASQIVGTNIAWYQQKPGQSPKALIYSASYRNSGVPDRFTGSGSGTDFTLTITNVQSEDLAEYFCQQYNSYPLTFGAGTKLEIK
# notes: as for B2
# B13: 7E12 (antibody, V domains shown)
# VH: B12 VH with I2V, L4M, Q5K
# VL: B12 VL
# notes: as for B2
# B14: 2C2 (antibody, V domains shown)
# VH: B12 VH with E6Q, T32A, I48L, H80Y, S84N, F95H, V106I
# VL: B12 VL with I28N, I33V, N55C, T76S
# notes: as for B2
# B15: 6D9 (antibody, mouse IgG2a, V domains shown)
# VH: B2 VH with E6Q, V37I, I64L, I69F, K81Q, T90S, I99V, Y108H
# VL: B2 VL with R22S, N28K, N30G, A80V, S91T
# notes: also called 6D9-mIgG2a; murine VTCN1 antibody 6D9
# B16: 7F10 (antibody, V domains shown)
# VH: B2 VH with I2V, E6Q, V34I, Q35H, A87S, Y93H, V103A
# VL: B2 VL with R22S, N30G
# notes: as for B2
# B17: 4C6 (antibody, V domains shown)
# VH: B2 VH with I2M, V34I, Q35H, A87S, Y93H, V103A, A119S
# VL: B2 VL with R22S, N30G
# notes: as for B2
# B18: 6E2 (antibody, V domains shown)
# VH: B2 VH with S54G, T100S, Y108H, A119S
# VL: B2 VL with R22S, N28K, N30G, S93R
# notes: as for B2
# B19: 5A12 (antibody, V domains shown)
# VH: B2 VH with I2V, E6Q, S70N, A87P
# VL: B2 VL with N1I, R22S, N30G
# notes: as for B2
# B20: 3G10 (antibody, V domains shown)
# VH: B2 VH with Q5K, Q35H, S54G, S56Y, A61S
# VL: B2 VL with N1I, V19I, R22N, N30G, R61H, S91T
# notes: as for B2
# B21: 3D11 (antibody, V domains shown)
# VH: QVQLQQPGAELVKPGASVKLSCKASGYSFTSYWMNWVKQRPGRGLEWIGRIHPSDSETHYNQNFKSKATLTVDKSSSTAYIQLNSLTSEDSAVYYCARPYYFYGSSPYAMDYWGQGASVTVSS
# VL: DVVMTQTPLSLPVSLGDQASISCRSSQSIVHSNGNTYLEWYLQKPGQSPKLLIYKVSNRFSGVPDRFSGSGSGTDFTFKISRVEAEDLGVYYCFQGSHVPYTFGGGTKLEIK
# notes: as for B2
# B22: 10D1 (antibody, V domains shown)
# VH: QVQLQESGPELVKPGASVKLSCKASGYIFTDYTIHWLKQSPGQGLEWIGWIYPGSGHTHYNDKFKGKATMTADKSSTTAYMQLSSLTSEDSAVFFCARGGESITTVFPLAYWGQGTLVTVSA
# VL: DIVMSQSPSSLAVSVGEKVTMSCKSSQSLLYSSDQKNYLAWYQQKPGQSPKLLIYWASTWESGVPDRFIGSGSGTDFTLTVSSVKAEDLAVYYCHQYYSYPPTFGAGTKLEIK
# notes: as for B2
# Biological target: T1, recombinant human VTCN1-his protein
# Assay: BLI (OCTET), human VTCN1 protein
row,Kd,Binder
1,192 nM,B1

# Biological target: T2, human VTCN1 expressed on cells …
# Assay: flow cytometry, antibody titration on 293-huVTCN1 cells
row,EC50,Binder
1,2.2 nM,B1

# Biological target: T3, mouse VTCN1 expressed on 293 cells
# Assay: flow cytometry, antibody titration on 293-muVTCN1 cells
row,EC50,Binder
1,45 nM,B1

# Biological target: T2, human VTCN1 expressed on cells …
# Assay: flow cytometry on live 293-VTCN1 and MX-1 cells, 0.05-10 ug/ml
row,binding result,Binder
1,binds,B2
2,binds,B3
3,binds,B4
4,binds,B5
5,binds,B6
6,binds,B7
7,binds,B8
8,binds,B9
9,binds,B10
10,binds,B11
11,binds,B12
12,binds,B13
13,binds,B14

# Biological target: T4, cynomolgus monkey VTCN1 protein
# Assay: BLI (OCTET Red), antibody on Protein A biosensor, cyno VTCN1
row,Kd,Binder
1,7 nM,B15
2,12 nM,B16
3,16 nM,B17
4,19 nM,B18
5,12 nM,B19
6,14 nM,B20
7,2 nM,B21
8,1 nM,B22

# Biological target: T2, human VTCN1 expressed on cells …
# Assay: flow cytometry, antibody titration on SKBR3 cells (endogenous VTCN1)
row,EC50,Binder
1,36.8 nM,B1

# Biological target: T1, recombinant human VTCN1-his protein
# Assay: BLI (OCTET Red), antibody on Protein A biosensor, recombinant VTCN1-his in solution
row,Kd,Binder
1,2 nM,B15
2,5 nM,B16
3,14 nM,B17
4,8 nM,B18
5,4 nM,B19
6,12 nM,B20
7,6 nM,B21
8,4 nM,B22
